This is an account of results in PMC4272012 (Nature methods, 2014).

Positions count from the first letter of the chain named.

The target of this assay is GFPuv (Aequorea victoria, UniProt P42212, 15N-labeled).

B1: LaG-21 (VHH)
VHH: QVQLVESGGGLVQAGGSLRLSCAASGPTGAMAWFRQAPGMEREFVGGISGSETDTYYADFVKGRLTVDRDNVKNTVDLQMNSLKPEDTAVYYCAARRRVTLFTSRADYDFWGQGTQVTVS
Regarding B1, the binding result is “binds”.

B2: LaG-14 (VHH)
VHH: QVQLVESGGGLVQAGGSLRLSCAASGRTYSISAMGWFRQAPGKEREFVAGISRSGGTTYYADPVKGRFTISRDNAKNTVYLQMNSLKPEDTAVYYCAARARGWTTFPAREIEYDYWGQGTQVTV
Regarding B2, the binding result is “binds”.

B3: LaG-27 (VHH)
VHH: DVQLVESGGGLVQAGGSLRLSCTASGLTISTYNIGWFRQAPGKEREFVGIIIRNGDTTYYADSVKGRFTISRDNAKNTVYLQMNSVKPADAAVYSCGATVRAGAAAEQYNSYIFRGQGTQVTV
For the molecule B3, the binding result is on record as “binds”.

B4: LaG-43 (VHH)
VHH: DVQLVESGGGLVQPGGSLRLSCEASGGAFSTVAMGWFRQAPGKEREFVGAITWTAGSTYYADSAKGRFTISRDNAKNTVHLQMNSLKPEDTAVYYCAQRVRGFFGPLRTTPSWYEYWGQGTQVTVS
In the case of B4, the binding result is given as “binds”.

B5: LaG-26 (VHH)
VHH: QVQLVESGGGLVQAGASMRLSCAASGITFSLYHWVWFRQAAGREHEFVAGIIRSGGETLSADSVKDRFIISRDDAKNTLYLQMNMLQPEDTATYYCAATHRADWYSSAFREYIFRGQGTQVTVS
B5: the binding result is reported as “binds”.

B6: LaG-19 (VHH)
VHH: QVQLVESGGGLVQAGGSLRLSCAASGPTGAMAWFRQAPGKEREFVGGISRSGTDTYYVDSVKGRFTIDRDNAKNTVYLQMNSLKPEDTAVYYCAARRSQILFTSRTDYEFWGQGTQVTV
For the molecule B6, the binding result is “binds”.

B7: LaG-41 (VHH)
VHH: B6 VHH with Q1D, R50G, G52E, I67V, A72V, S98R, Q99I, I100T, E109D, Q113R
As for B7, the binding result was “binds”.

B8: LaG-16 (VHH)
VHH: QVQLVESGGRLVQAGDSLRLSCAASGRTFSTSAMAWFRQAPGREREFVAAITWTVGNTILGDSVKGRFTISRDRAKNTVDLQMDNLEPEDTAVYYCSARSRGYVLSVLRSVDSYDYWGQGTQVTVS
As to B8, the binding result is “binds”.

B9: LaG-17 (VHH)
VHH: DVQLVESGGGLVQAGGSLRLSCAASGRTISMAAMSWFRQAPGKEREFVAGISRSAGSAVHADSVKGRFTISRDNTKNTLYLQMNSLKAEDTAVYYCAVRTSGFFGSIPRTGTAFDYWGQGTQVTVS
B9: the binding result was “binds”.

B10: LaG-9 (VHH)
VHH: DVQLVESGGGLVQAGGSLRLSCAASGRTFSTSAMGWFRQAPGKEREFVARITWSAGYTAYSDSVKGRFTISRDKAKNTVYLQMNSLKPEDTAVYYCASRSAGYSSSLTRREDYAYWGQGTQVTVS
Regarding B10, the binding result is listed as “binds”.

B11: LaG-2 (VHH)
VHH: QVQLVESGGGLVQAGGSLRLSCAASGRTFSNYAMGWFRQAPGKEREFVAAISWTGVSTYYADSVKGRFTISRDNDKNTVYVQMNSLIPEDTAIYYCAAVRARSFSDTYSRVNEYDYWGQGTQVTV
For B11, the binding result is reported as “binds”.
